# Measurements from patent publication US20260104418A1.
# Assays:
# mouse CLDN18.2 (mouse) = mouse CLDN18.2 (mouse) (UniProt P56857); experiment: FACS titration of AF647-labelled IgG on HEK293T mouse CLDN18.2 cells
# [1] = biological target: Claudin-18.1 (CLDN18.1) (human) (UniProt P56856); experiment: FACS titration of AF647-labelled IgG on HEK293T CLDN18.1 cells
# Sequence of Claudin-18.1 (CLDN18.1) (human) (P56856 whole entry): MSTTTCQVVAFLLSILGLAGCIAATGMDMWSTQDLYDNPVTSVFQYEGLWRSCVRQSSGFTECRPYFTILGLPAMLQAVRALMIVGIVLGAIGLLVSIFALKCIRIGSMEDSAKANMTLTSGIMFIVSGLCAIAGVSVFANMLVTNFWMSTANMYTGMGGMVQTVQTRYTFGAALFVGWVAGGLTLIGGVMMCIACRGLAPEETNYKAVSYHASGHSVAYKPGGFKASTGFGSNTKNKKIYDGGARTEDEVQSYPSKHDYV
binder,measurement,setting,value
"Ab 358 (antibody, V domains shown) VH: VVQLVESGGDFVQPGGSRKLSCAVSGFTFSSFGMHWVRQAPEKGLEWVAYISSGTTNIYYADTVKGRFTVSRDNPKNSLFLHMTSLRSEDTAMYYCVRSGYYGNSLDYWGQGTPLTVSS VL: DIVMTQSPSSLTVTAGEKVTMSCKSSQSLFNSGNQRNYLTWYQQKPGQPPKLLIYWASTRESGVPDRFTGSGSGTGFTLTISSVQAEDLAFYYCQNVYIYPLTFGLGTKLELR",EC50,mouse CLDN18.2 (mouse),40.6 nM
same,EC50,[1],1520 nM
"Ab 360 (antibody, V domains shown) VH: VVQLQQSGPELVKPGASVKMSCKASGYTFTSYLMHWVRQKPGLGLDWIGYINPYNDGTNYNAKFIDKATLTSDKTSSTAYMELSSLTSEDSAIYYCTRGDYWGQGTSVTVSS VL: DIVMTQSPSSLAVTAGEQVTMSCKSSQSLLNSGNQKNYLTWYQQKPGQPPKLLIYWASIRQSGVPDRFTGSGSGTDFTLTISSVQAEDLAVYYCLNDYGFPLTFGAGTKLELK",EC50,mouse CLDN18.2 (mouse),57.7 nM
same,EC50,[1],1760 nM
"Ab 432 (antibody, V domains shown) VH: QIQLQQSGAELARPRASVKLSCKASGYTFTSDVISWVKQRPGQGLEWIGESYLRNGNTYYNENFKGKATLTADKSSSTAYMELRSLTSEDSAVYFCARSYYGNSFAYWGQGTLVTVSA VL: DIVMTQSPSSLTVTAREKVTMNCKSTQSLLNSGNQKNYLTWYQQKPGQPPKLLIYWASTRESGVPDRFTGSGSGTDFTLTISSVQAEDLAVYYCQNAYYYPFTFGGGTKLEIK",EC50,mouse CLDN18.2 (mouse),96.8 nM
"Ab 331 (antibody, V domains shown) VH: EVQLQQSGPELVKPGASVRMSCKASGYTFTSYIMHWVKQKPGQGPEWMGYINPYNDGTNYNEKFKDKATLTSDKSSSTAYMDLSSLTSEDSAVYYCTRGDYWGQGTSVTVSS VL: DIVMTQSPSSLTVTAGEKVTMSCKSSQSLLNSGNQKNYLTWYQQKPGQPPKLLFYWASTKKSGVPDRFTGSGSRTDFTLTISSVQAEDLAVYYCLNDYSFPLTFGAGTKLELK",EC50,mouse CLDN18.2 (mouse),810 nM
same,EC50,[1],1680 nM
"Ab 347 (antibody, V domains shown) VH: EVQLQQSGPELVKPGASVKMSCKASGYTFTSYLIHWVKQKPGQGLEWIGYINPYNDATYYNEKFKAKATLTSDKSSSTAYMELSSLTSEDTAIYYCTRGDYWSQGTSVTVSS VL: DIVMTQSPSSLTVTAGEKVTMSCKSSQSLLNSGNQKNYLTWYQQKPGQPPKLLIYWASTRQSGVPDRFTGSGSGTDFTLTISSVQAEDLTVYYCLNDYSFPLTFGAGTKLELK",EC50,mouse CLDN18.2 (mouse),1350 nM
same,EC50,[1],1230 nM
"Ab 301 (antibody, V domains shown) VH: VVQLQQSGPELVKPGASVKMSCKASGYTFTSFLIHWVRQKPGLGLEWIGYINPYDYGINYNVKFMDKVTLTSDKTSSTAYMELSSLTSADSAIYYCTRGDYWGQGTSVIVSS VL: DIVMTQSPSSLAVTTGEQVTMNCKSSQSLLNSGNQKNYLTWYQQKTGQSPKLLIYWASTRQSGVPDRFTGSGSGTDFTLTISSVQAEDLAVYYCLNDYGFPLTFGAGTKLELK",EC50,mouse CLDN18.2 (mouse),1610 nM
same,EC50,[1],675 nM
"Ab 307 (antibody, V domains shown) VH: DVKLVESGGGLVKPGGSLKLSCAASGFTFSSYTMSWVRQTPEKRLEWVATIIIGGSYTYYPDSVKGRFTISRDNAKNTLYLQMSSLKSEDTAMYYCTRLVKGNAMDYWGQGTSVAVSS VL: DIVMTQSPSSLTVTTGEKVTMSCKSSQSLLNSGNQKNYLSWYQQIPGQPPKLLFYWASTRESGVPDRFTGSGSGTDFTLTISNVQAEDLAVYYCQNDYSYPFTFGAGTKLELR",EC50,mouse CLDN18.2 (mouse),68.8 nM
"Ab 416 (antibody, V domains shown) VH: EFQLQQSGPELVKPGASVKISCKASVYSFTGYNMNWVKQSNGKSLEWIGVINPNYGNTNYNQRFKGKATLTVDQSSSTAYMQLNSLTSEDSAVYYCARSEDYYNIRGASWGQGTLVTVSA VL: QIVLTQSPAIMSASPGQKVTITCSASSTINYMHWYQQKLGSSPKLWIYDTSKLAPGVPARFSGSGSGTSYSLTISSMEAEDAASYFCHQWSSYPPTFGSGTKLELK",EC50,mouse CLDN18.2 (mouse),591 nM
"Ab 409 (antibody, V domains shown) VH: QVQLQQSGAELARPGASVKLSCKASGYTFTSYGISWVKQRTGQGLEWIGEISPRSGNTYYNEKFKGKATLTADKSSSTAYMELRSLTSEDSAVYFCATGVITTVIPTDWYFDVWGTGTTVTVSS VL: DIQMTQTTSSLSASLGDRVTISCRASQDISNYLNWYQQKPDGTVKLLIYYTSRLHSGVPSRFSGSGSGTDYSLTISNLEPEDIATYYCQHYSKLPPTFGSGTKLEIK",EC50,mouse CLDN18.2 (mouse),1040 nM
